Measured values from publication PMC9452701, “Highly efficient production of rebaudioside D enabled by structure-guided engineering of bacterial glycosyltransferase YojK” (Frontiers in Bioengineering and Biotechnology, 2022).
Where a chain is given by its changes, count along the chain named. Numbers in names are those of the source.

T1: YojK (Bacillus subtilis, UniProt O31853)
T1 construct: codon-optimized synthetic gene in pET-21b(+), E. coli BL21(DE3), Ni-NTA and Superdex 200; M1-M405 described; two monomers per asymmetric unit
T1 sequence (O31853 1-405): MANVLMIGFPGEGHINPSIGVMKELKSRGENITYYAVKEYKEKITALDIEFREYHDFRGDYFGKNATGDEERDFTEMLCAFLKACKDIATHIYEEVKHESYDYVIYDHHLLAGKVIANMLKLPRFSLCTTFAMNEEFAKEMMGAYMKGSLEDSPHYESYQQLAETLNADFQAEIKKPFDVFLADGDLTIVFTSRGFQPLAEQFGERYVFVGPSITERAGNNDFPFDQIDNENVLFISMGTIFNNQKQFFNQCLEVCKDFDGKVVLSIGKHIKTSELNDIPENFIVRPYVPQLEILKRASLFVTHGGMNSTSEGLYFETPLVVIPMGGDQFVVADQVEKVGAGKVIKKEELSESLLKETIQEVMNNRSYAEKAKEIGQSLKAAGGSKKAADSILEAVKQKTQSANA

B1: YojK (Bacillus subtilis subsp. subtilis str. 168) (protein)
chain: T1 sequence (O31853 1-405)
B2: YojK (Bacillus subtilis subsp. subtilis str. 168; G326F) (protein)
chain: T1 sequence (O31853 1-405) with G326F
B3: YojK (Bacillus subtilis subsp. subtilis str. 168; G326F/I241T) (protein)
chain: T1 sequence (O31853 1-405) with I241T, G326F
B4: YojK (Bacillus subtilis subsp. subtilis str. 168; G327N/I241T) (protein)
chain: T1 sequence (O31853 1-405) with I241T, G327N
B5: YojK (Bacillus subtilis subsp. subtilis str. 168; G327N) (protein)
chain: T1 sequence (O31853 1-405) with G327N
B6: YojK (Bacillus subtilis subsp. subtilis str. 168; I241T) (protein)
chain: T1 sequence (O31853 1-405) with I241T

Tests used:
YojK = target: T1, YojK; experiment: X-ray crystal structure, […] Å; format: binding; settings: co-crystallised with 5 mM UDP, pH 8.0, 18°C; sugar donor site
purified protein = substrate: C=C1C[C@@]23CC[C@H]4[C@@](C)(CCC[C@@]4(C)C(=O)O[C@@H]4O[C@H](CO)[C@@H](O)[C@H](O)[C@H]4O)[C@@H]2CC[C@]1(O[C@@H]1O[C@H](CO)[C@@H](O)[C@H](O[C@@H]2O[C@H](CO)[C@@H](O)[C@H](O)[C@H]2O)[C@H]1O[C@@H]1O[C@H](CO)[C@@H](O)[C@H](O)[C@H]1O)C3; experiment: purified protein; settings: 5 mM UDPG, 10 mM MnCl2, 50 mM Tris-HCl pH 8.0, 35°C, 20 min, Reb A 0.05-0.7 mM

Row | Molecule | X-ray crystal structure, 1.90 Å (YojK) | Km (purified protein) [µM] | kcat (purified protein) [s⁻¹] | kcat/Km (purified protein) [M⁻¹ s⁻¹]
1 | O=c1ccn([C@@H]2O[C@H](COP(=O)(O)OP(=O)(O)O)[C@@H](O)[C@H]2O)c(=O)[nH]1 [UDP] | we solved the crystal structure of YojK in complex with uridine diphosphate (UDP) |  |  | 
2 | B1 |  | 210.52 ± 11.70 | 0.018 | 85.5
3 | B2 |  | 290.16 ± 8.34 | 0.154 | 528
4 | B3 |  | 347.63 ± 24.23 | 0.258 | 741
5 | B4 |  | 193.07 ± 7.30 | 0.179 | 929
6 | B5 |  | 176.23 ± 10.62 | 0.0837 | 475
7 | B6 |  | 197.74 ± 9.25 | 0.0223 | 113
